From paper PMC7432094, “Flexible NAD^+ Binding in Deoxyhypusine Synthase Reflects the Dynamic Hypusine Modification of Translation Factor IF5A” (International Journal of Molecular Sciences, 2020)

Target: the molecule itself
Test: crystal structure; sitting drop, 20 °C, 100 mM phosphate-citrate pH 4.8, 32% ethanol, 5% PEG 1000; four PhoDHS molecules in the asymmetric unit, dimer of dimers with point group D2

B1: deoxyhypusine synthase from Pyrococcus horikoshii OT3 (enzyme, UniProt O50105 1-342, looked up)
chain: MKAKDIVLKKSEKIEGVEVKGPWLDDAQSLEEVVSYYYRIGFQATHLGRAIEIWRKVEEKRERGEEIRVFLGYTSNIISSGLREIIAWLVKEKKVDVIVTTAGGVEEDFIKSLKPFILGDWEVDDAELRKKGVNRIGNIFVPNDRYIEFEKYMIPFFERVLKIEEKLSRPLTASEFIYEMGRYMDEKLGKEKEKSVIYWAYKNNIPIFCPAITDGSIGDMLYFFKEERRDSRLIIDIANDIVKLNNLAITAKETASIILGGSLPKHAIINANLFRGGTDYAIYISTAVPWDGSLSGAPPREGVSWGKIKAKADYVEVWGDATLIFPILVWMVMKARGQGYAQ
notes: deoxyhypusine synthase (DHS), Pyrococcus horikoshii OT3, UniProtKB O50105, residues 1-342 (342 residues in all, 39 kDa); Homotetramer (dimer of dimers, D2); The His6 tag was removed with TEV protease at the site Glu-Asn-Leu-Tyr-Phe-Gln-Gly, so a residue of the site may remain at the N-terminus; also called PhoDHS; DHS; not shown: His6, N-terminal, cleaved
stoichiometry N: 4
